Data: patent publication US20220112288A1 (published 2022)

Molecular target: T1, Recombinant human CD4 (R&D Systems, Cat. 10327-CD) (human, UniProt P01730 26-390, limits assumed)
T1 construct: Bought protein; also called huCD4
Experiment: BLI (Octet Red384), purified antibody on anti-mouse Fc sensors, human CD4 100/50/25 nM, global 1:1 fit;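 also: antibodies loaded at 10 µg/mL, curves fitted across association and dissociation phases, with an unrelated mouse-derived antibody serving as internal reference control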

Binder	Kd [nM]	Response	koff [s⁻¹]	kon [M⁻¹ s⁻¹]
75110_13P22A (antibody, V domains shown, Tested as antibody purified from AlivaMab Mouse Kappa hybridoma (human V regions, kappa light chain, mouse Fc captured by anti-mouse Fc sensors)) VH: QVQLQQWGAGLLKPSETLSLTCAAYGGSFSGYYWSWIRQSPGKGLEWIGEINQSGNTNYNPSLKSRVTISADTSKNQFSLKLSSVTAADTAVYYCARVLNWFDYWGQGILVTVSS VL: DIQMTQSPSSVSASVGDRVTITCRASQGISDWLAWYQQKSGKAPDLLIFAASSLQSGVPSRFSGSGSGTDFTLTISSLQPEDFATYYCQQANSFPYTFGQGTKLEIK	14	0.16	0.0012	86000
75110_09N20A (antibody, V domains shown, Tested as antibody purified from AlivaMab Mouse Kappa hybridoma (human V regions, kappa light chain, mouse Fc captured by anti-mouse Fc sensors)) VH: EVQLVESGGGLVQPGGSLRLSCAASGFTFSSYWMSWVRQAPGKGLEWVANINEDGSEKYYVDSVKGRFTISRDNAKNSLYLQMNSLRAEDTAVYYCVREGGQWLALDYWGQGTLVTVSS VL: DIQMTQSPSSVSASVGDRVTITCRASQGISSWLAWYQQKPGKAPKLLIYAASSLQSGVPSSFSGSGSGTDFTLTINSLQPEDFATYYCQQANSFPWTFGQGTKVAIK	53	0.09	0.0045	86000
75110_12H19A (antibody, V domains shown, Tested as antibody purified from AlivaMab Mouse Kappa hybridoma (human V regions, kappa light chain, mouse Fc captured by anti-mouse Fc sensors)) VH: EVQLVESGGGLVQPGGSLRLSCAASGFTFSSYWMSWVRQAPGQGLEWVANINEDGNEKYHVDSVKGRLTISRDNAKNSLYLQMNSLRGVDTAVYFCAREGGQWLALDYWGQGALVTVSS VL: DIQMTQSPSSVSASVGDRVSITCRASQGISSWLAWYQQKPGKAPKLLIYGASGLQSGVPSRFSGSGSGTDFTLTISSLQPEDFATYYCQQANSFPWTFGQGTKVEIK	13	0.25	0.0022	170000
75110_08A13A (antibody, V domains shown, Tested as antibody purified from AlivaMab Mouse Kappa hybridoma (human V regions, kappa light chain, mouse Fc captured by anti-mouse Fc sensors)) VH: EVQLVESGGGLVQPGGSLRLSCAASGFIFSSYWMSWVRQAPGKGLEWVANIKQDGSEKYYMDSVKGRFTISRDNAKNSLYLQMNSLRAEDTAVYYCARDNSYYYYGMDVWGQGTTVTVSS VL: AIQMTQSPSSLSASVGDRVTITCRASQGIRDDLGWYQQKPGKAPKLLIFAASSLQSGVPSSFSGSGSGTDFTLTISSLQPEDFATYYCLHHYNYPYTFGQGTKLEIK	6.6	0.12	0.00078	120000
75110_08F20A (antibody, V domains shown, Tested as antibody purified from AlivaMab Mouse Kappa hybridoma (human V regions, kappa light chain, mouse Fc captured by anti-mouse Fc sensors)) VH: QVQLQESGPGLVKPSETLSLTCSVSGGSISTYYWSWIRQPAGKGLEWIGRICTTENTNYNPSLKSRVTMSIDSSKNQFSLKLSSVTAADTAVYYCARDLERLNYYGMDVWGQGATVTVSS VL: DIQMTQSPSSLSASVGDRVTITCQASQDISKYLNWYQQKPGIAPKLLIYDASNLETGVPSRFSGSGSGTDFTFTISSLQPEDFATYYCQQYDSLPITFGQGTRLEIK	8.4	0.22	0.0014	170000
75110_08G08A (antibody, V domains shown, Tested as antibody purified from AlivaMab Mouse Kappa hybridoma (human V regions, kappa light chain, mouse Fc captured by anti-mouse Fc sensors)) VH: QVQLQESGPGLVKPSETLSLTCSVSGGSISTYYWSWIRQPAGKGLEWIGRICTTENTNYNPSLKSRVTMSIDSSKNQFSLKLSSVTAADTAVYYCARDLERLNYYGMDVWGQGATVTVSS VL: DIQMTQSPSSLSASVGDRVTITCQASQDISNYLNWYQQKPGIAPKLLIYDASNLETGVPSRFSGSGSGTDFTFTISSLQPEDIATYYCQQYDSLPITFGQGTRLEIK	20	0.15	0.0035	180000
75110_12K21A (antibody, V domains shown, Tested as antibody purified from AlivaMab Mouse Kappa hybridoma (human V regions, kappa light chain, mouse Fc captured by anti-mouse Fc sensors)) VH: QVQLQQWGAGLLKPSETLSLTCAVSGGSFSGYYWSWIRQPPGKGLEWIGEINHSGSTNCNPSLKSRVTISVDTSNNQFSLKLSSVTAADTAVYYCARVLNYFDYWGQGTLVTVSS VL: DIQMTQSPSSVSASVGDRVTITCRASPDIANWLAWYQQKPGKAPELLIYAASSLQSGVPSRFSGSGSGTDFTLTISSLQPEDFATYFCQQANSFPLTFGGGTKVESK	1.8	0.22	0.00021	110000
75110_13C13A (antibody, V domains shown, Tested as antibody purified from AlivaMab Mouse Kappa hybridoma (human V regions, kappa light chain, mouse Fc captured by anti-mouse Fc sensors)) VH: QVQLQQWGAGLLKPSETLSLTCAVSGGSFSGYYWSWIRQPPGKGLEWIGEINHSGSTNCNPSLKSRVTISVDTSKNQFSLKLSSVTAADTAMYYCARVLNFFDYWGQGTLVTVSS VL: DIQMTQTPSSVSASVGDRVTITCRASPGISNWLAWYQQKPGKAPELLIYAASSLQSGVPSRFSGSGSGTDFTLTISSLQPEDFATYFCQQANSFPLTFGGGTKVESK	11	0.21	0.0013	120000

Next, values leading:

Kd [nM]	Response	koff [s⁻¹]	kon [M⁻¹ s⁻¹]	Binder
9.4	0.16	0.0012	130000	75110_07H07A (antibody, V domains shown, Tested as antibody purified from AlivaMab Mouse Kappa hybridoma (human V regions, kappa light chain, mouse Fc captured by anti-mouse Fc sensors)) VH: EVQVVESGGGLVQPGGSLRLSCAASGFTFSSYWMSWVRQAPGKGLEWVANIKEEGSEKYYVDSVKGRFTISRDNAKNSLYLQMNSLRAEDTAVYYCVREGGQWLALDYWGQGTLVTVSS VL: DIQMTQSPSSVSGSVGDRVTITCRASQGISSWLAWYQQKPGKAPKLLIFGASSLQSGVPSRFSGSGSGTDFTLTISSLQPEDFATYYCQQANSFPWTFGQGTKVQIK
5	0.08	0.0015	290000	75110_12C19A (antibody, V domains shown, Tested as antibody purified from AlivaMab Mouse Kappa hybridoma (human V regions, kappa light chain, mouse Fc captured by anti-mouse Fc sensors)) VH: EVQLVESGGGLVQPGGSLRLSCAASGFTFSSYWMSWVRQAPGKGLEWVANIKEDGSDKYYVDSVKGRFTISRDNAKNSLYLQMNSLRAEDTAVHYCVREGGQWLALDYWGQGTLVTVSS VL: DIQMTQSPSSVSGSVGDRVTITCRASQGISSWLAWYQQKPGKAPKLLIYGASSLQSGVPSRFSGSGSGTDFTLTISSLQPEDFVTYYCQQANSFPWTFGQGTKVEIK
26	0.19	0.0033	120000	75110_12H17A (antibody, V domains shown, Tested as antibody purified from AlivaMab Mouse Kappa hybridoma (human V regions, kappa light chain, mouse Fc captured by anti-mouse Fc sensors)) VH: EVQLVESGGGLVQPGGSLRLSCAASGFTFSDYWMSWVRQAPGKGLEWVANIKEDGNEKYYVDSVKGRFTISRDNAKNSLFLQMNSLRAEDTAVYYCAREGGQWLALDYWGQGALVTVSS VL: DIQMTQSPSSVSASVGDRVTITCRASQGISSWLAWYQQKPGKAPKFLISGASSLQSGVPSRFTGSGSGTDFTLTISSLQPEDFATYYCQQANSFPWTFGQGTKVEIK
48	0.21	0.004	85000	75110_09G15A (antibody, V domains shown, Tested as antibody purified from AlivaMab Mouse Kappa hybridoma (human V regions, kappa light chain, mouse Fc captured by anti-mouse Fc sensors)) VH: EVQLVESGGGLVQPGGSLRLSCAASGFTFSDYWMSWVRQAPGKGLEWVANINQDGSEKYSVDSVKGRFTISRDNAKNSLYLQMNSLRAEDTAIFYCAREGGQWLALDYWGQGTLVTVSS VL: DIQMTQSPSSVSASVGDRVTITCRASQGISSWLAWYQQKPGKAPKLLIYGASSLQSGVPSRFSGSGSGTDFTLTINSLQPEDFTTYYCQQANIFPWTFGQGTKVEIK
0.38	0.19	0.00019	500000	75110_14G10A (antibody, V domains shown, Tested as antibody purified from AlivaMab Mouse Kappa hybridoma (human V regions, kappa light chain, mouse Fc captured by anti-mouse Fc sensors)) VH: EVQLVESGGGLVKPGGSLRLSCAASGFTFSSYSMNWVRQAPGKGLEWVSFISSSSSYIYYADSVKGRFTISRDNAKNSLYLQMNSLRAEDTAVYYCARERGDDYGDYEGAFDIWGQGTMVTVSS VL: not shown
10	0.14	0.0017	160000	75110_14I16A (antibody, V domains shown, Tested as antibody purified from AlivaMab Mouse Kappa hybridoma (human V regions, kappa light chain, mouse Fc captured by anti-mouse Fc sensors); also called 75110_14116A) VH: QVQLQESGPGLVKPSETLSLTCTVSNGSISSYYWSWIRQSAGKGLEWIGRIYTSGSTNYNPSLKSRVTMLVDTSKNQFSLKLSSVTAADTAVYYCARDREDYYYYGMDVWGQGTTVTVSS VL: DIQMTQSPSSLSASVGDRVTITCQASHDISNYLNWYQQKPGKAPKLLLYYASNLETGVPSRFSGSGSGTDFTFTITSLQPEDIGTYSCQQYDNLPLTFGGGTKVEIK
14	0.1	0.0022	160000	75110_07J02A (antibody, V domains shown, Tested as antibody purified from AlivaMab Mouse Kappa hybridoma (human V regions, kappa light chain, mouse Fc captured by anti-mouse Fc sensors); also called 75110_07102A) VH: EVQLVESGGGLVQPGGSLRLSCAASGFTFSSYWMSWVRQAPGKGLEWVANIKEDGSEKYYVDSVKGRFTISRDNAKNSLYLQMNSLRAEDTAVYYCARDGSYSGYGMDVWGQGTTVTVSS VL: AIQMTQSPSSLSASVGDRVTITCRASQGIRNDLGWYQQKPGKAPKLLIYAASSLQSGVPSRFSGRGSGTDFALTISSLQPEDFATYYCLLDYNYPYTFGQGTRLEIK
3.1	0.2	0.00049	160000	75110_10K21A (antibody, V domains shown, Tested as antibody purified from AlivaMab Mouse Kappa hybridoma (human V regions, kappa light chain, mouse Fc captured by anti-mouse Fc sensors)) VH: EVQLVESGGGLVQPGGSLRLSCAASGFTFSSYWMTWVRQAPGKGLEWVANIKQDGSEKYYVDSVKGRFTISRDNAKNSLYLQMNSLRAEDTAVYYCVRDRYDALDIWGQGTMVTVSS VL: AIQMTQSPSSLSASVGDRVTITCRASQGIRNDLNWYQQKPGKAPKLLIYAASSLQSGVPSRFSGSGSGTDFTLTISSLQAEDFATYYCLKDYNYPYTFGQGTKLEIK
7.1	0.19	0.0006	85000	75110_07J24A (antibody, V domains shown, Tested as antibody purified from AlivaMab Mouse Kappa hybridoma (human V regions, kappa light chain, mouse Fc captured by anti-mouse Fc sensors); also called 75110_07124A) VH: QAQLQESGPGLVKPSETLSLTCTVSGGSISSYYYNWIRQPAGKGLEWIGRIYTSGRTDYNPSLKSRVTMSADTSKNQFSLKLSSVTAADTAVYYCARDEGPTDAFDIWGQGTMVTVSS VL: DIVMTQTPLSLPVTPGEPASISCRSSQSLLDSDDGNTYLDWYLQKPGQSPHLLIYTLSYRASGVPDRFSGSGSGSDFTLKISRVEAEDVGVYYCMQRIEFPFTFGPGTKVDIK
< 0.001	0.2	< 1e-07	84000	75110_07N04A (antibody, V domains shown, Tested as antibody purified from AlivaMab Mouse Kappa hybridoma (human V regions, kappa light chain, mouse Fc captured by anti-mouse Fc sensors)) VH: QVQLQESGPGLVKPSETLSLTCSVSGVSSTSFYWSWIRQPAGKGLDWIGRIYTSGSTNYNPSLKSRVTMSVDTSKNQFSLKLSSVTAADTAVYYCARDPGYSDAFAIWGQGTMVTVSS VL: not shown
3	0.17	0.00029	95000	75110_13P21A (antibody, V domains shown, Tested as antibody purified from AlivaMab Mouse Kappa hybridoma (human V regions, kappa light chain, mouse Fc captured by anti-mouse Fc sensors)) VH: QVQLQQWGAGLLKPSETLSLTCAVSGGSFSGYYWSWIRQPPGKGLEWIGEINHSGSTNCNPSLKSRVTISVDTSNNQFSLKLSSVTAADTAVYYCARVLNYFDYWGQGTLVTVSS VL: DIQMTQSPSSVSASVGDRVTITCRASPDIANWLAWYQQKPGKAPELLIYAASSLQSGVPSRFSGSGSGTDFTLTISSLQPEDFATYFCQQANSFPLTFGGGTKVESK
